The target of this assay is T1, soluble human CD3ε chain (human, UniProt P07766 23-126, limits assumed).
T1 construct: the text says soluble human CD3ε chain; also called human CD3 epsilon chain
Briefly: SPR (Biacore).

The values below come from patent publication US20210388110A1 (published 2021).

T1 sequence (P07766 23-126 limits assumed): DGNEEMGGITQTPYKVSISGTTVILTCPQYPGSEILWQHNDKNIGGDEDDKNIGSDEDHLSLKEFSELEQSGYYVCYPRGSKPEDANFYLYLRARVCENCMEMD

B1: TR01H040-E22Hh/none-Hi-Kn010G3/L0011-k0 (antibody, human IgG1, kappa, L234A L235A, N297A)
heavy: QVQLVESGGGLVQPGRSLRLSCAASGFTFSNAWMHWVRQAPGKGLEWVAQIKDKSQNYATYYAESVKGRFTISRADSKNSIYLQMNSLKTEDTAVYYCRYVHYSASYGVDAWGQGTTVTVSSASTKGPSVFPLAPSSKSTSGGTAALGCLVKDYFPEPVTVSWNSGALTSGVHTFPAVLQSSGLYSLSSVVTVPSSSLGTQTYICNVNHKPSNTKVDKKVEPKSCDKTHTCPPCPAPEAAGGPSVFLFPPKPKDTLMISRTPEVTCVVVDVSHEDPEVKFNWYVDGVEVHNAKTKPREEQYASTYRVVSVLTVLHQDWLNGKEYKCKVSNKALPAPIEKTISKAKGQPREPQVYTLPPSRCELTKNQVSLSCAVKGFYPSDIAVEWESNGQPENNYKTTPPVLDSDGSFFLVSKLTVDKSRWQQGNVFSCSVMHEALHNHYTQKSLSLSPDYKDDDDK
chain: EPKSSDKTHTCPPCPAPELLGGPSVFLFPPKPKDTLMISRTPEVTCVVVDVSHEDPEVKFNWYVDGVEVHNAKTKPREEQYNSTYRVVSVLTVLHQDWLNGKEYKCKVSNKALPAPIEKTISKAKGQPREPQVCTLPPSRDELTKNQVSLWCLVKGFYPSDIAVEWESNGQPENNYKTTPPVLDSDGSFFLYSKLTVDKSRWQQGNVFSCSVMHEALHNRYTQKSLSLSP
light: DIVMTQSPLSLPVTPGEPASISCRSSQPLVHSNRNTYLHWYQQKPGQAPRLLIYKVSNRFSGVPDRFSGSGSGTDFTLKISRVEAEDVGVYYCGQGTQVPYTFGQGTKLEIKRTVAAPSVFIFPPSDEQLKSGTASVVCLLNNFYPREAKVQWKVDNALQSGNSQESVTEQDSKDSTYSLSSTLTLSKADYEKHKVYACEVTHQGLSSPVTKSFNRGEC
notes: single-arm
Molecule B1 came in with a dissociation constant (Kd) of 34.8 nM.

B2: TR01H040-E22Hh/none-Hi-Kn010G3/L0201-k0 (antibody, human IgG1, kappa, L234A L235A, N297A)
heavy: QVQLVESGGGLVQPGRSLRLSCAASGFTFSNAWMHWVRQAPGKGLEWVAQIKDKSQNYATYYAESVKGRFTISRADSKNSIYLQMNSLKTEDTAVYYCRYVHYSASYGVDAWGQGTTVTVSSASTKGPSVFPLAPSSKSTSGGTAALGCLVKDYFPEPVTVSWNSGALTSGVHTFPAVLQSSGLYSLSSVVTVPSSSLGTQTYICNVNHKPSNTKVDKKVEPKSCDKTHTCPPCPAPEAAGGPSVFLFPPKPKDTLMISRTPEVTCVVVDVSHEDPEVKFNWYVDGVEVHNAKTKPREEQYASTYRVVSVLTVLHQDWLNGKEYKCKVSNKALPAPIEKTISKAKGQPREPQVYTLPPSRCELTKNQVSLSCAVKGFYPSDIAVEWESNGQPENNYKTTPPVLDSDGSFFLVSKLTVDKSRWQQGNVFSCSVMHEALHNHYTQKSLSLSPDYKDDDDK
chain: EPKSSDKTHTCPPCPAPELLGGPSVFLFPPKPKDTLMISRTPEVTCVVVDVSHEDPEVKFNWYVDGVEVHNAKTKPREEQYNSTYRVVSVLTVLHQDWLNGKEYKCKVSNKALPAPIEKTISKAKGQPREPQVCTLPPSRDELTKNQVSLWCLVKGFYPSDIAVEWESNGQPENNYKTTPPVLDSDGSFFLYSKLTVDKSRWQQGNVFSCSVMHEALHNRYTQKSLSLSP
light: DIVMTQSPLSLPVTPGEPASISCRSSQPPVHSNRNTYLHWYQQKPGQAPRLLIYKVSNRFSGVPDRFSGSGSGTDFTLKISRVEAEDVGVYYCGQGTQVPYTFGQGTKLEIKRTVAAPSVFIFPPSDEQLKSGTASVVCLLNNFYPREAKVQWKVDNALQSGNSQESVTEQDSKDSTYSLSSTLTLSKADYEKHKVYACEVTHQGLSSPVTKSFNRGEC
notes: single-arm
The molecule B2 showed a dissociation constant Kd of 28.1 nM.

B3: TR01H040-E22Hh/none-Hi-Kn010G3/L0203-k0 (antibody, human IgG1, kappa, L234A L235A, N297A)
heavy: QVQLVESGGGLVQPGRSLRLSCAASGFTFSNAWMHWVRQAPGKGLEWVAQIKDKSQNYATYYAESVKGRFTISRADSKNSIYLQMNSLKTEDTAVYYCRYVHYSASYGVDAWGQGTTVTVSSASTKGPSVFPLAPSSKSTSGGTAALGCLVKDYFPEPVTVSWNSGALTSGVHTFPAVLQSSGLYSLSSVVTVPSSSLGTQTYICNVNHKPSNTKVDKKVEPKSCDKTHTCPPCPAPEAAGGPSVFLFPPKPKDTLMISRTPEVTCVVVDVSHEDPEVKFNWYVDGVEVHNAKTKPREEQYASTYRVVSVLTVLHQDWLNGKEYKCKVSNKALPAPIEKTISKAKGQPREPQVYTLPPSRCELTKNQVSLSCAVKGFYPSDIAVEWESNGQPENNYKTTPPVLDSDGSFFLVSKLTVDKSRWQQGNVFSCSVMHEALHNHYTQKSLSLSPDYKDDDDK
chain: EPKSSDKTHTCPPCPAPELLGGPSVFLFPPKPKDTLMISRTPEVTCVVVDVSHEDPEVKFNWYVDGVEVHNAKTKPREEQYNSTYRVVSVLTVLHQDWLNGKEYKCKVSNKALPAPIEKTISKAKGQPREPQVCTLPPSRDELTKNQVSLWCLVKGFYPSDIAVEWESNGQPENNYKTTPPVLDSDGSFFLYSKLTVDKSRWQQGNVFSCSVMHEALHNRYTQKSLSLSP
light: DIVMTQSPLSLPVTPGEPASISCRSSQSPVHSNRNTYIHWYQQKPGQAPRLLIYKVSNRFSGVPDRFSGSGSGTDFTLKISRVEAEDVGVYYCGQGTQVPYTFGQGTKLEIKRTVAAPSVFIFPPSDEQLKSGTASVVCLLNNFYPREAKVQWKVDNALQSGNSQESVTEQDSKDSTYSLSSTLTLSKADYEKHKVYACEVTHQGLSSPVTKSFNRGEC
notes: single-arm
B3: binding was put at a Kd of 32.4 nM.

B4: TR01H040-E22Hh/none-Hi-Kn010G3/L0204-k0 (antibody, human IgG1, kappa, L234A L235A, N297A)
heavy: QVQLVESGGGLVQPGRSLRLSCAASGFTFSNAWMHWVRQAPGKGLEWVAQIKDKSQNYATYYAESVKGRFTISRADSKNSIYLQMNSLKTEDTAVYYCRYVHYSASYGVDAWGQGTTVTVSSASTKGPSVFPLAPSSKSTSGGTAALGCLVKDYFPEPVTVSWNSGALTSGVHTFPAVLQSSGLYSLSSVVTVPSSSLGTQTYICNVNHKPSNTKVDKKVEPKSCDKTHTCPPCPAPEAAGGPSVFLFPPKPKDTLMISRTPEVTCVVVDVSHEDPEVKFNWYVDGVEVHNAKTKPREEQYASTYRVVSVLTVLHQDWLNGKEYKCKVSNKALPAPIEKTISKAKGQPREPQVYTLPPSRCELTKNQVSLSCAVKGFYPSDIAVEWESNGQPENNYKTTPPVLDSDGSFFLVSKLTVDKSRWQQGNVFSCSVMHEALHNHYTQKSLSLSPDYKDDDDK
chain: EPKSSDKTHTCPPCPAPELLGGPSVFLFPPKPKDTLMISRTPEVTCVVVDVSHEDPEVKFNWYVDGVEVHNAKTKPREEQYNSTYRVVSVLTVLHQDWLNGKEYKCKVSNKALPAPIEKTISKAKGQPREPQVCTLPPSRDELTKNQVSLWCLVKGFYPSDIAVEWESNGQPENNYKTTPPVLDSDGSFFLYSKLTVDKSRWQQGNVFSCSVMHEALHNRYTQKSLSLSP
light: DIVMTQSPLSLPVTPGEPASISCRSSQSPVHSNRNTYLHWYQQKPGQAPRLLIYKVSNRFRGVPDRFSGSGSGTDFTLKISRVEAEDVGVYYCGQGTQVPYTFGQGTKLEIKRTVAAPSVFIFPPSDEQLKSGTASVVCLLNNFYPREAKVQWKVDNALQSGNSQESVTEQDSKDSTYSLSSTLTLSKADYEKHKVYACEVTHQGLSSPVTKSFNRGEC
notes: single-arm
Molecule B4 had an equilibrium dissociation constant (Kd) of 22.1 nM.

B5: TR01H040-E22Hh/none-Hi-Kn010G3/L0200-k0 (antibody, human IgG1, kappa, L234A L235A, N297A)
heavy: QVQLVESGGGLVQPGRSLRLSCAASGFTFSNAWMHWVRQAPGKGLEWVAQIKDKSQNYATYYAESVKGRFTISRADSKNSIYLQMNSLKTEDTAVYYCRYVHYSASYGVDAWGQGTTVTVSSASTKGPSVFPLAPSSKSTSGGTAALGCLVKDYFPEPVTVSWNSGALTSGVHTFPAVLQSSGLYSLSSVVTVPSSSLGTQTYICNVNHKPSNTKVDKKVEPKSCDKTHTCPPCPAPEAAGGPSVFLFPPKPKDTLMISRTPEVTCVVVDVSHEDPEVKFNWYVDGVEVHNAKTKPREEQYASTYRVVSVLTVLHQDWLNGKEYKCKVSNKALPAPIEKTISKAKGQPREPQVYTLPPSRCELTKNQVSLSCAVKGFYPSDIAVEWESNGQPENNYKTTPPVLDSDGSFFLVSKLTVDKSRWQQGNVFSCSVMHEALHNHYTQKSLSLSPDYKDDDDK
chain: EPKSSDKTHTCPPCPAPELLGGPSVFLFPPKPKDTLMISRTPEVTCVVVDVSHEDPEVKFNWYVDGVEVHNAKTKPREEQYNSTYRVVSVLTVLHQDWLNGKEYKCKVSNKALPAPIEKTISKAKGQPREPQVCTLPPSRDELTKNQVSLWCLVKGFYPSDIAVEWESNGQPENNYKTTPPVLDSDGSFFLYSKLTVDKSRWQQGNVFSCSVMHEALHNRYTQKSLSLSP
light: DIVMTQSPLSLPVTPGEPASISCRPSQSPVHSNRNTYLHWYQQKPGQAPRLLIYKVSNRFSGVPDRFSGSGSGTDFTLKISRVEAEDVGVYYCGQGTQVPYTFGQGTKLEIKRTVAAPSVFIFPPSDEQLKSGTASVVCLLNNFYPREAKVQWKVDNALQSGNSQESVTEQDSKDSTYSLSSTLTLSKADYEKHKVYACEVTHQGLSSPVTKSFNRGEC
notes: single-arm
B5 yielded a Kd of 28.7 nM.

B6: TR01H040-E22Hh/none-Hi-Kn010G3/L0202-k0 (antibody, human IgG1, kappa, L234A L235A, N297A)
heavy: QVQLVESGGGLVQPGRSLRLSCAASGFTFSNAWMHWVRQAPGKGLEWVAQIKDKSQNYATYYAESVKGRFTISRADSKNSIYLQMNSLKTEDTAVYYCRYVHYSASYGVDAWGQGTTVTVSSASTKGPSVFPLAPSSKSTSGGTAALGCLVKDYFPEPVTVSWNSGALTSGVHTFPAVLQSSGLYSLSSVVTVPSSSLGTQTYICNVNHKPSNTKVDKKVEPKSCDKTHTCPPCPAPEAAGGPSVFLFPPKPKDTLMISRTPEVTCVVVDVSHEDPEVKFNWYVDGVEVHNAKTKPREEQYASTYRVVSVLTVLHQDWLNGKEYKCKVSNKALPAPIEKTISKAKGQPREPQVYTLPPSRCELTKNQVSLSCAVKGFYPSDIAVEWESNGQPENNYKTTPPVLDSDGSFFLVSKLTVDKSRWQQGNVFSCSVMHEALHNHYTQKSLSLSPDYKDDDDK
chain: EPKSSDKTHTCPPCPAPELLGGPSVFLFPPKPKDTLMISRTPEVTCVVVDVSHEDPEVKFNWYVDGVEVHNAKTKPREEQYNSTYRVVSVLTVLHQDWLNGKEYKCKVSNKALPAPIEKTISKAKGQPREPQVCTLPPSRDELTKNQVSLWCLVKGFYPSDIAVEWESNGQPENNYKTTPPVLDSDGSFFLYSKLTVDKSRWQQGNVFSCSVMHEALHNRYTQKSLSLSP
light: DIVMTQSPLSLPVTPGEPASISCRSSQSPVHSNRWTYLHWYQQKPGQAPRLLIYKVSNRFSGVPDRFSGSGSGTDFTLKISRVEAEDVGVYYCGQGTQVPYTFGQGTKLEIKRTVAAPSVFIFPPSDEQLKSGTASVVCLLNNFYPREAKVQWKVDNALQSGNSQESVTEQDSKDSTYSLSSTLTLSKADYEKHKVYACEVTHQGLSSPVTKSFNRGEC
notes: single-arm
B6: binding was put at a Kd of 61.9 nM.
